Assays:
[1] = tested on: SK-OV-3 human ovarian cancer cells; type: in vivo; details: VP101(hG1DM) 14 mg/kg weekly, olaparib 100 mg/kg daily, alone or in combination; FIG. 41
Text: 39 days after grafting, the mice were intraperitoneally injected with 3 million activated PBMCs and randomly divided into 4 groups of 6 animals by tumor volume. The day of grouping was defined as D0, and dosing was started on the day of grouping D0. The regimen of the combination therapy group is as follows: the drugs were formulated separately and administered sequentially (no certain order or time interval was required, and one treatment should be given after the completed administration of the other). After the administration, the length and width of tumors in each group were measured, and the tumor volume was calculated.

[2] = tested on: MDA-MB-231 cells (human breast cancer cells); type: in vivo; details: VP101(hG1DM) 3 mg/kg weekly, olaparib 50 mg/kg daily, alone or in combination; FIG. 39
Text: 23 days after grafting, the mice were randomly divided into 4 groups of 6 animals by tumor volume. The day of grouping was defined as DO, and olaparib dosing was started on day D0. […] The regimen of the combination therapy group is as follows: the drugs were formulated separately and administered sequentially (no certain order or time interval was required, and one treatment should be given after the completed administration of the other). After the administration, the length and width of tumors in each group were measured, and the tumor volume was calculated.

C1q = C1q (Homo sapiens, UniProt P02745+P02746+P02747); experiment: Affinity constant assay to C1q (Fortebio Octet); details: antibody immobilized on FAB2G sensor, C1q 0.625-10 nM, 30° C., 1:1 model; N/A = no binding or extremely weak binding signal
Procedure: 50 μg/mL antibody was immobilized on the FAB2G sensor at an immobilization height of about 2.0 nm. […] The antigen and antibody were dissociated in the buffer for 60 s. The sensor was refreshed 4 times in 10 mM glycine pH 1.7, each for 5 s. The shaking speed of the sample plate was 1000 rpm, the temperature was 30° C. and the frequency was 0.6 Hz. The data were analyzed by 1:1 model fitting to obtain affinity constants. The data acquisition software was Fortebio Data Acquisition 7.0, and the data analysis software was Fortebio Data Analysis 7.0.

FcγRIIa_H131 = target: T1, FcγRIIa_H131 (Homo sapiens, UniProt P12318); experiment: Affinity constant assay to FcγRIIa_H131 (Fortebio Octet); details: FcγRIIa_H131 immobilized on NTA sensor, antibody 12.5-200 nM, 30° C., 1:1 model; N/A = no binding or extremely weak binding signal
T1 sequence (P12318 34-217 limits assumed): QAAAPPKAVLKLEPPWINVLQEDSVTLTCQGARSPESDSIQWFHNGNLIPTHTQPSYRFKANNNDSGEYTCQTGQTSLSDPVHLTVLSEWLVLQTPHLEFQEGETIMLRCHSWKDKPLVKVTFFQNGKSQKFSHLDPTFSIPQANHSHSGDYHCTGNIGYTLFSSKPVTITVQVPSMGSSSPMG
Procedure: The antibody was dissociated in the buffer for 60 s. The sensor was refreshed in 10 mM glycine pH 1.7 and 10 nM nickel sulfate. […] The data were analyzed by 1:1 model fitting to obtain affinity constants.

FcγRIIIa_F158 = FcγRIIIa_F158 (Homo sapiens, UniProt P08637); experiment: Affinity constant assay to FcγRIIIa_F158 (Fortebio Octet); details: FcγRIIIa_F158 immobilized on HIS1K sensor, antibody 31.25-500 nM, 30° C., 1:1 model; N/A = no binding or extremely weak binding signal
Procedure: 5 μg/mL FcγRIIIa_F158 was immobilized on the HIS1K sensor for 120 s. The sensor was equilibrated in a buffer for 60 s, and the binding of the immobilized hFcGR3A(F158)-his on the sensor to the antibodies at concentrations of 31.25-500 nM (serial two-fold dilution) was determined for 60 s. The antibody was dissociated in the buffer for 60 s. The sensor was refreshed 4 times in 10 mM glycine pH 1.5, each for 5 s. The detection temperature was 30° C. and the frequency was 0.3 Hz. The data were analyzed by 1:1 model fitting to obtain affinity constants.

FcγRI = FcγRI (Homo sapiens, UniProt P12314); experiment: Affinity constant assay to FcγRI (Fortebio Octet); details: N/A = no binding or extremely weak binding signal
Procedure: 1 μg/mL FcγRIa was immobilized on the HIS1K sensor for 50 s. The sensor was equilibrated in a buffer for 60 s, and the binding of the immobilized CD64 on the sensor to the antibodies at concentrations of 3.12-50 nM (two-fold dilution) was determined for 120 s. The antibody was dissociated in the buffer for 120 s. The sensor was refreshed 4 times in 10 mM glycine pH 1.5, each for 5 s. The detection temperature was 30° C. and the frequency was 0.3 Hz. The data were analyzed by 1:1 model fitting to obtain affinity constants.

[3] = tested on: CHO-K1-PD1 cells overexpressing PD-1; experiment: ADCP activity assay, murine macrophages and CHO-K1-PD1 cells, flow cytometry; type: cell-based; details: murine macrophages + CHO-K1-PD1-CFSE cells, antibody 10, 1 and 0.1 μg/mL, 2 h, vs isotype control; FIG. 35
Procedure: The method is as follows:
The femoral bone marrow of C57 mice (purchased from Guangdong Medical Laboratory Animal Center) was first aseptically collected and lysed by erythrocyte lysis buffer on ice for 5 min. The lysis was terminated with DMEM complete medium (containing 10% FBS), and the lysate was centrifuged at 1000 rpm and washed twice. The cell pellet was resuspended in 10 mL of DMEM complete medium and M-CSF was added at a working concentration of 100 ng/mL. The cells were cultured for 7 days at 37° C. and 5% CO2 in a cell culture chamber for induction. Half of the medium was exchanged and M-CSF was added on Days 3 and 5. The induction of cells was completed on day 7. […] The supernatant was discarded and the cells were suspended in DMEM complete medium (containing 10% FBS) and counted. […] CHO-K1-PD1 cells were collected by conventional methods, centrifuged at 170×g for 5 min, resuspended, counted, analyzed for viability and washed once with PBS. […] The cells were counted, transferred to a 96-well plate and centrifuged at 1000×g for 5 min, and the supernatant was discarded. […]
Macrophages in the system were APC^+ positive, and macrophages involved in phagocytosis were APC and CFSE dual positive. The phagocytosis rate was determined as the ratio of the number of dual positive cells to the number of APC positive cells, and the antibody-mediated ADCP activity was evaluated. […]

FcγRI, sequence (P12314 16-374): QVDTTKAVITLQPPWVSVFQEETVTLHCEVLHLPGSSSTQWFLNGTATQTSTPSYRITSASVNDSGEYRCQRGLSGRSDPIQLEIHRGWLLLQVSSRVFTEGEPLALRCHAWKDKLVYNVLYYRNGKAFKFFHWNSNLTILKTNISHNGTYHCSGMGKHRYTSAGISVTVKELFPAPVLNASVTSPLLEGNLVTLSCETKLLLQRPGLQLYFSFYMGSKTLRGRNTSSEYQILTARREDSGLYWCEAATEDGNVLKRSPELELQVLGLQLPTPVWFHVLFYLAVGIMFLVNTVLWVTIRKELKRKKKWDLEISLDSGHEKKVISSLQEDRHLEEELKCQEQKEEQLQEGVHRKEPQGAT
C1q, sequence (P02745 23-245): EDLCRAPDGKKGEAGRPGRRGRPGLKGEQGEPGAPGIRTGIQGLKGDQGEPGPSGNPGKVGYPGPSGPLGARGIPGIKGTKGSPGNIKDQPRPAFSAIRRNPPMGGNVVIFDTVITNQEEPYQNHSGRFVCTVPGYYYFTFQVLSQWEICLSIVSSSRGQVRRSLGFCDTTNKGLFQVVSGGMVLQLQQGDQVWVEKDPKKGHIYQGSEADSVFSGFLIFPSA
C1q, sequence (P02746 28-253): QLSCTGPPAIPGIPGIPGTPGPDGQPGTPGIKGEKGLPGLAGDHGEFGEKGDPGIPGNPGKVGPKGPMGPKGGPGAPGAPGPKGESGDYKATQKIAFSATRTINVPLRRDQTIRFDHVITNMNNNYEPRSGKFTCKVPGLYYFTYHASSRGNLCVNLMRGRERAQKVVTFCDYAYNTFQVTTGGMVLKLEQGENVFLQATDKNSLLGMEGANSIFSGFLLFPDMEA
C1q, sequence (P02747 29-245): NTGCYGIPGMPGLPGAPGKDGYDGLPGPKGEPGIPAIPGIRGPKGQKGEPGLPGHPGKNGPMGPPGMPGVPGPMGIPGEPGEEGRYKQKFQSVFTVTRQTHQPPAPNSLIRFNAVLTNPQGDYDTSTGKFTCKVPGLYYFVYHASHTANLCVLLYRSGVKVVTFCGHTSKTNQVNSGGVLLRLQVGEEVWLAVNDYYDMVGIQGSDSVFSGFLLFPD
FcγRIIIa_F158, sequence (P08637 17-208 limits assumed): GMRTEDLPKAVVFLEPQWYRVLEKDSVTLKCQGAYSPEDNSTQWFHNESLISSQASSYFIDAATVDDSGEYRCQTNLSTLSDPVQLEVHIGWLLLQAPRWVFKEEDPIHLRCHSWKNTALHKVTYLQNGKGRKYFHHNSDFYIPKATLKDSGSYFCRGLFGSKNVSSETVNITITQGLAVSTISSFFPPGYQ

In the case of `O=C(c1cc(Cc2n[nH]c(=O)c3ccccc23)ccc1F)N1CCN(C(=O)C2CC2)CC1` [olaparib], the “tolerability / body weight of tumor-bearing mice” value [1] is reported as “no effect on the body weight” and the “tolerability / body weight of tumor-bearing mice” value [2] is reported as “no effect on the body weight”.
With “Nivolumab: approved PD-1 antibody (Opdivo) purchased from BMS as a reference antibody” the “KD (affinity constant) to C1q” value (C1q) was “no binding or an extremely weak binding signal”, the “KD (affinity constant) to FcγRIIa_H131” value (FcγRIIa_H131) was “no binding or an extremely weak binding signal” and the “KD (affinity constant) to FcγRIIIa_F158” value (FcγRIIIa_F158) was “no binding or an extremely weak binding signal”. The Kd (FcγRI; FcγRIa immobilized on HIS1K sensor, antibody 3.12-50 nM, 30° C., 1:1 model) was 6.2 nM, the “Rmax to FcγRI” value (FcγRI) was 0.48-0.53 nm and the “kdis to FcγRI” value (FcγRI) was 0.00432 s⁻¹. For the same compound, the “ADCP activity (phagocytic rate, P %)” value [3] was “significant ADCP effect”.
